Laboratory results reported in US20230002493A1 (ORIONIS BIOSCIENCES, published 2023).

Assays:
[1] = biological target: T1, recombinant PD-L1 extracellular domain fused to the mouse IgG1 Fc domain (SinoBiologicals) (human; mouse, UniProt Q9NZQ7 19-238); assay: BLI (Octet Red 96), PD-L1-mouse IgG1 Fc on AMQ biosensors, VHH dilution series
T1 construct: extracellular domain; also called human PD-L1-mouse Fc; PD-L1-mouse Fc protein; not shown: mouse IgG1 Fc domain
Protocol: (§1) Affinities of resulting variants were measured using the bio-layer interferometry technology on an Octet Red 96 instrument (ForteBio). In brief, recombinant PD-L1 extracellular domain fused to the mouse IgG1 Fc domain (SinoBiologicals) was immobilized on anti-murine IgG quantitation (AMQ) biosensors (ForteBio). Loaded sensors were incubated with a serial dilution of PD-L1 VHH variant, association and dissociation monitored and kinetic parameters were calculated using the Octet Data Analysis software v10 (ForteBio).
(§2) The aspartic acid at position 1 was included to avoid the risk of pyroglutamate formation. […] Resulting mutants were purified and affinities measured as described in Example 1.

[2] = biological target: T1, recombinant PD-L1 extracellular domain …; assay: BLI (Octet Red 96); ratio of the printed KDs, variant over 2LIG189
Protocol: as §1, §2

T1 sequence (Q9NZQ7 19-238): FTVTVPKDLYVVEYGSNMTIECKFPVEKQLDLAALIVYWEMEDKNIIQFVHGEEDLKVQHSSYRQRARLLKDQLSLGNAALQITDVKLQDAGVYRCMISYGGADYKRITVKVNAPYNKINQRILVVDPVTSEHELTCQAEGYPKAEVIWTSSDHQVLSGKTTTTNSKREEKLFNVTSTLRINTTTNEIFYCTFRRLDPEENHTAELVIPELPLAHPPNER

Row | Binder | Kd [1] | koff [1] | kon [1] | Ratio KD [2] | binding result [1]
1 | 2LIG189_D33E (VHH) VHH: QVQLQESGGGLVQAGGSLRLSCAASGKIFSGNEMGWYRQAPGKQRELVGIITSGGITDYADAVKGRFTISRDNAKNMMYLQMNSLKPEDTAVYYCNMRDRTIWWGQGTQVTVSS | 41.2 nM | 0.00883 s⁻¹ | 214000 M⁻¹ s⁻¹ | 52.1 | –
2 | 2LIG189_M97R (VHH) VHH: QVQLQESGGGLVQAGGSLRLSCAASGKIFSGNDMGWYRQAPGKQRELVGIITSGGITDYADAVKGRFTISRDNAKNMMYLQMNSLKPEDTAVYYCNRRDRTIWWGQGTQVTVSS | – | – | – | – | no binding
3 | 2LIG189_N32H (VHH) VHH: QVQLQESGGGLVQAGGSLRLSCAASGKIFSGHDMGWYRQAPGKQRELVGIITSGGITDYADAVKGRFTISRDNAKNMMYLQMNSLKPEDTAVYYCNMRDRTIWWGQGTQVTVSS | 1.81 nM | 0.000446 s⁻¹ | 247000 M⁻¹ s⁻¹ | 2.28 | –
4 | 2LIG189_D33V (VHH) VHH: QVQLQESGGGLVQAGGSLRLSCAASGKIFSGNVMGWYRQAPGKQRELVGIITSGGITDYADAVKGRFTISRDNAKNMMYLQMNSLKPEDTAVYYCNMRDRTIWWGQGTQVTVSS | – | – | – | – | no binding
5 | 2LIG189_N32V (VHH) VHH: QVQLQESGGGLVQAGGSLRLSCAASGKIFSGVDMGWYRQAPGKQRELVGIITSGGITDYADAVKGRFTISRDNAKNMMYLQMNSLKPEDTAVYYCNMRDRTIWWGQGTQVTVSS | 3.02 nM | 0.0009 s⁻¹ | 298000 M⁻¹ s⁻¹ | 3.82 | –
6 | 2LIG189_N32L (VHH) VHH: QVQLQESGGGLVQAGGSLRLSCAASGKIFSGLDMGWYRQAPGKQRELVGIITSGGITDYADAVKGRFTISRDNAKNMMYLQMNSLKPEDTAVYYCNMRDRTIWWGQGTQVTVSS | 1.62 nM | 0.000195 s⁻¹ | 121000 M⁻¹ s⁻¹ | 2.04 | –
7 | 2LIG189_N32A (VHH) VHH: QVQLQESGGGLVQAGGSLRLSCAASGKIFSGADMGWYRQAPGKQRELVGIITSGGITDYADAVKGRFTISRDNAKNMMYLQMNSLKPEDTAVYYCNMRDRTIWWGQGTQVTVSS | 2.7 nM | 0.000733 s⁻¹ | 272000 M⁻¹ s⁻¹ | 3.41 | –
8 | 2LIG189_M97H (VHH) VHH: QVQLQESGGGLVQAGGSLRLSCAASGKIFSGNDMGWYRQAPGKQRELVGIITSGGITDYADAVKGRFTISRDNAKNMMYLQMNSLKPEDTAVYYCNHRDRTIWWGQGTQVTVSS | – | – | – | – | no binding
9 | 2LIG189_D33Q (VHH) VHH: QVQLQESGGGLVQAGGSLRLSCAASGKIFSGNQMGWYRQAPGKQRELVGIITSGGITDYADAVKGRFTISRDNAKNMMYLQMNSLKPEDTAVYYCNMRDRTIWWGQGTQVTVSS | 25 nM | 0.0118 s⁻¹ | 474000 M⁻¹ s⁻¹ | 31.6 | –
10 | 2LIG189_M97E (VHH) VHH: QVQLQESGGGLVQAGGSLRLSCAASGKIFSGNDMGWYRQAPGKQRELVGIITSGGITDYADAVKGRFTISRDNAKNMMYLQMNSLKPEDTAVYYCNERDRTIWWGQGTQVTVSS | – | – | – | – | no binding
11 | 2LIG189_D33F (VHH) VHH: QVQLQESGGGLVQAGGSLRLSCAASGKIFSGNFMGWYRQAPGKQRELVGIITSGGITDYADAVKGRFTISRDNAKNMMYLQMNSLKPEDTAVYYCNMRDRTIWWGQGTQVTVSS | 9.78 nM | 0.0107 s⁻¹ | 1.09e+06 M⁻¹ s⁻¹ | 12.4 | –
12 | 2LIG189_D33R (VHH) VHH: QVQLQESGGGLVQAGGSLRLSCAASGKIFSGNRMGWYRQAPGKQRELVGIITSGGITDYADAVKGRFTISRDNAKNMMYLQMNSLKPEDTAVYYCNMRDRTIWWGQGTQVTVSS | – | – | – | – | no binding
13 | 2LIG189_OPT1 (VHH) VHH: DVQLVESGGGLVQPGGSLRLSCAASGKIFSGNDMGWYRQAPGKQRELVGIITSGGITDYADAVKGRFTISRDNSKNMMYLQMNSLRPEDTAVYYCNMRDRTIWWGQGTLVTVSS | 6.92 nM | 0.000497 s⁻¹ | 71800 M⁻¹ s⁻¹ | 8.75 | –
14 | 2LIG189_M97Y (VHH) VHH: QVQLQESGGGLVQAGGSLRLSCAASGKIFSGNDMGWYRQAPGKQRELVGIITSGGITDYADAVKGRFTISRDNAKNMMYLQMNSLKPEDTAVYYCNYRDRTIWWGQGTQVTVSS | 4.82 nM | 0.00146 s⁻¹ | 303000 M⁻¹ s⁻¹ | 6.09 | –
15 | 2LIG189_N32E (VHH) VHH: QVQLQESGGGLVQAGGSLRLSCAASGKIFSGEDMGWYRQAPGKQRELVGIITSGGITDYADAVKGRFTISRDNAKNMMYLQMNSLKPEDTAVYYCNMRDRTIWWGQGTQVTVSS | 0.542 nM | 9.85e-05 s⁻¹ | 182000 M⁻¹ s⁻¹ | 0.68 | –
16 | 2LIG189_N32F (VHH) VHH: QVQLQESGGGLVQAGGSLRLSCAASGKIFSGFDMGWYRQAPGKQRELVGIITSGGITDYADAVKGRFTISRDNAKNMMYLQMNSLKPEDTAVYYCNMRDRTIWWGQGTQVTVSS | 0.55 nM | 0.000176 s⁻¹ | 320000 M⁻¹ s⁻¹ | 0.7 | –
17 | 2LIG189_M97F (VHH) VHH: QVQLQESGGGLVQAGGSLRLSCAASGKIFSGNDMGWYRQAPGKQRELVGIITSGGITDYADAVKGRFTISRDNAKNMMYLQMNSLKPEDTAVYYCNFRDRTIWWGQGTQVTVSS | 1.51 nM | 0.000208 s⁻¹ | 138000 M⁻¹ s⁻¹ | 1.9 | –
18 | 2LIG189_OPT2 (VHH) VHH: DVQLVESGGGLVQPGGSLRLSCAASGKIFSGNDMGWYRQAPGKQRELVGIITSGGITDYADAVKGRFTISRDNSKNTMYLQMNSLRPEDTAVYYCNMRDRTIWWGQGTLVTVSS | 1.28 nM | 0.000299 s⁻¹ | 234000 M⁻¹ s⁻¹ | 1.62 | –
19 | 2LIG189_D33L (VHH) VHH: QVQLQESGGGLVQAGGSLRLSCAASGKIFSGNLMGWYRQAPGKQRELVGIITSGGITDYADAVKGRFTISRDNAKNMMYLQMNSLKPEDTAVYYCNMRDRTIWWGQGTQVTVSS | 16.4 nM | 0.0342 s⁻¹ | 2.08e+06 M⁻¹ s⁻¹ | 20.7 | –
20 | 2LIG189_N32Y (VHH) VHH: QVQLQESGGGLVQAGGSLRLSCAASGKIFSGYDMGWYRQAPGKQRELVGIITSGGITDYADAVKGRFTISRDNAKNMMYLQMNSLKPEDTAVYYCNMRDRTIWWGQGTQVTVSS | 2.04 nM | 0.000629 s⁻¹ | 308000 M⁻¹ s⁻¹ | 2.58 | –
21 | 2LIG189_D33Y (VHH) VHH: QVQLQESGGGLVQAGGSLRLSCAASGKIFSGNYMGWYRQAPGKQRELVGIITSGGITDYADAVKGRFTISRDNAKNMMYLQMNSLKPEDTAVYYCNMRDRTIWWGQGTQVTVSS | 2.23 nM | 0.00835 s⁻¹ | 3.75e+06 M⁻¹ s⁻¹ | 2.82 | –
22 | 2LIG189_N32I (VHH) VHH: QVQLQESGGGLVQAGGSLRLSCAASGKIFSGIDMGWYRQAPGKQRELVGIITSGGITDYADAVKGRFTISRDNAKNMMYLQMNSLKPEDTAVYYCNMRDRTIWWGQGTQVTVSS | 6.51 nM | 0.000872 s⁻¹ | 134000 M⁻¹ s⁻¹ | 8.23 | –
23 | 2LIG189_D33I (VHH) VHH: QVQLQESGGGLVQAGGSLRLSCAASGKIFSGNIMGWYRQAPGKQRELVGIITSGGITDYADAVKGRFTISRDNAKNMMYLQMNSLKPEDTAVYYCNMRDRTIWWGQGTQVTVSS | – | – | – | – | no binding
24 | 2LIG189_M97Q (VHH) VHH: QVQLQESGGGLVQAGGSLRLSCAASGKIFSGNDMGWYRQAPGKQRELVGIITSGGITDYADAVKGRFTISRDNAKNMMYLQMNSLKPEDTAVYYCNQRDRTIWWGQGTQVTVSS | – | – | – | – | no binding
25 | 2LIG189_N32G (VHH) VHH: QVQLQESGGGLVQAGGSLRLSCAASGKIFSGGDMGWYRQAPGKQRELVGIITSGGITDYADAVKGRFTISRDNAKNMMYLQMNSLKPEDTAVYYCNMRDRTIWWGQGTQVTVSS | 19 nM | 0.00228 s⁻¹ | 120000 M⁻¹ s⁻¹ | 24 | –
26 | 2LIG189_N32T (VHH) VHH: QVQLQESGGGLVQAGGSLRLSCAASGKIFSGTDMGWYRQAPGKQRELVGIITSGGITDYADAVKGRFTISRDNAKNMMYLQMNSLKPEDTAVYYCNMRDRTIWWGQGTQVTVSS | 6.31 nM | 0.00104 s⁻¹ | 164000 M⁻¹ s⁻¹ | 7.97 | –
27 | 2LIG189_N32S (VHH) VHH: QVQLQESGGGLVQAGGSLRLSCAASGKIFSGSDMGWYRQAPGKQRELVGIITSGGITDYADAVKGRFTISRDNAKNMMYLQMNSLKPEDTAVYYCNMRDRTIWWGQGTQVTVSS | 1.8 nM | 0.000292 s⁻¹ | 163000 M⁻¹ s⁻¹ | 2.27 | –
